Assay results taken from patent US12466854B2, “Peptide useful for the transport of molecules through cell barriers” (UNIVERSITÉ GRENOBLE ALPES, priority 2022, dated 2025).

Tested on: differentiated cellular BBB model
Experiment: Study B: permeability of the nanobodies and conjugates through differentiated cellular BBB model (ELISA)
Assay type: in vitro ADME, rats
Conditions: samples at 60 and 120 min, FIG. 7
Protocol: Cerebral microvessel endothelial cells prepared from 5-week-old male rats were seeded on microporous filters in order to: • evaluate the toxicity of the nanobodies and conjugates during their transfer by kinetic measurement of the sucrose transfer. • evaluate the permeability of the nanobodies and conjugates in the blood/brain direction. Experimental Conditions: • The endothelial cells were seeded on 28 Transwell Polycarbonate filters (porosity 0.4 μm and diameter 12 mm), and cultured in differentiation medium. • The measurement of toxicity (study A) or permeability (study B) of the nanobodies and conjugates was carried out in HBSS Ca/Mg medium supplemented with 0.1% BSA.
For study B, the medium collected at 60 min basolaterally was replaced by the same volume of fresh medium.
The samples collected at 60 and 120 min were analyzed by ELISA test to evaluate the quantity of nanobodies and conjugates which passed during study B. To be able to analyze the different samples by ELISA, it was necessary to first purify them to remove BSA limiting adhesion to 96-well plates of ELISA test. Thanks to the polyhistidine label present on the 3 nanobodies and conjugates, purifications on a 96-well plate coated with Nickel-NTA were carried out. […]
An absorbance reading was carried out at 450 nm after stopping the colorimetric reaction using a 1 N HCl solution. […]

B1: 2C5: anti-Tau nanobody (VHH, SEQ ID NO: 3) detecting pathological oligomeric forms of Tau protein (protein)
VHH: QVQLVQSGGGLVQAGGSLRLSCAASGRTFSSDTLAWFRQAPGKEREFVASISPSGGVTYYEDSVKGRFTISRDNSKNTVLLQMNSLTPEDTAVYYCNRDPKYGNTRYWGQGTQVTVSSAAA
  passage through the BBB model (blood/brain direction): not passing this model
